# B1: SEQ 16(50) (mixed)
# RNA: UCUGAGGGAAACAGGUUUUGCUCCUCGGA
# modifications: 2'-deoxy G8,G14,G15,C23,C26; 2'-OMe G4,A5,G6,G7,A9,A11,A13,G20,G27,G28,A29; 2'-OH A10; other pyrimidines 2'-F; 5' 80 kDa PEG (GL2-800GS2)-ssH linker; 3' idT
# B2: SEQ 16(29) (mixed)
# RNA: UCUGAGGGAAACAGGUUUUGCUCCUCGGA
# modifications: as 16(21) with dC23
# B3: SEQ 16(15) (mixed)
# RNA: UCUGAGGGAAACAGGUUUUGCUCCUCGGA
# modifications: as 16(4) with dC21
# B4: SEQ 16(61) (mixed)
# RNA: UCUGAGGGAAACAGGUUUUGCUCCUCGGA
# modifications: dT1; 2'-deoxy G8,G14,G15,C23,C26; 2'-OMe G4,A5,G6,G7,A9,A11,A13,U17,G20,G27,G28,A29; 2'-OH A10 with PS; other pyrimidines 2'-F; 5' and 3' idT
# B5: SEQ 16(2) (ssRNA)
# RNA: UCUGAGGGAAACAGGUUUUGCUCCUCGGA
# modifications: 2'-F all pyrimidines and G8; 2'-OMe G4 A5 G6 G7 A9 A11 A13 G20 G27 G28 A29; 2'-OH A10 G14 G15
# B6: SEQ 16(57) (mixed)
# RNA: UCUGAGGGAAACAGGUUUUGCUCCUCGGA
# modifications: dT1; 2'-deoxy G8,G14,G15,C23,C26; 2'-OMe G4,A5,G6,G7,A9,A11,A13,G20,U22,G27,G28,A29; 2'-OH A10 with PS; other pyrimidines 2'-F; 5' and 3' idT
# B7: SEQ 16(6) (mixed)
# RNA: UCUGAGGGAAACAGGUUUUGCUCCUCGGA
# modifications: as 16(4) with dG14 dG15
# B8: SEQ 16(24) (mixed)
# RNA: UCUGAGGGAAACAGGUUUUGCUCCUCGGA
# modifications: as 16(21) with 5' 40 kDa PEG (GL2-400GS2)-ssH linker instead of 5' idT
# B9: SEQ 36 (ssRNA)
# RNA: UCUGAGGGAAACAGGUUUGCUCCUCGGA
# modifications: 2'-F pyrimidines, 2'-OH purines
# B10: SEQ 16(13) (mixed)
# RNA: UCUGAGGGAAACAGGUUUUGCUCCUCGGA
# modifications: as 16(4) with dT22
# B11: SEQ 16(56) (mixed)
# RNA: UCUGAGGGAAACAGGUUUUGCUCCUCGGA
# modifications: dT1; 2'-deoxy G8,G14,G15,C23,C26; 2'-OMe G4,A5,G6,G7,A9,A11,A13,G20,C24,U25,G27,G28,A29; 2'-OH A10 with PS; other pyrimidines 2'-F; 5' and 3' idT
# B12: SEQ 16(16) (mixed)
# RNA: UCUGAGGGAAACAGGUUUUGCUCCUCGGA
# modifications: as 16(4) with dT19
# B13: SEQ 37 (ssRNA)
# RNA: UCUGAGGGAACAGGUUUUGCUCCUCGGA
# modifications: 2'-F pyrimidines, 2'-OH purines
# B14: SEQ 16(11) (mixed)
# RNA: UCUGAGGGAAACAGGUUUUGCUCCUCGGA
# modifications: as 16(4) with dT25 dC26
# B15: SEQ 16(64) (mixed)
# RNA: UCUGAGGGAAACAGGUUUUGCUCCUCGGA
# modifications: dT1; 2'-deoxy G8,G14,G15,C23,C26; 2'-OMe G4,A5,G6,G7,A9,A11,A13,G20,G27,G28,A29; 2'-OH A10 with PS; other pyrimidines 2'-F; 5' 80 kDa PEG (GL4-800GS2)-ssH linker; 3' idT
# B16: SEQ 16(67) (mixed)
# RNA: UCUGAGGGAAACAGGUUUUGCUCCUCGGA
# modifications: dT1; 2'-deoxy G8,G14,G15,C23,C26; 2'-OMe C2,U3,G4,A5,G6,G7,A9,A11,A13,G20,C21,U22,C24,U25,G27,G28,A29; 2'-OH A10 with PS; other pyrimidines 2'-F; 5' 80 kDa PEG (GL2-800GS2)-ssH linker; 3' idT
# B17: SEQ 16(9) (ssRNA)
# RNA: UCUGAGGGAAACAGGUUUUGCUCCUCGGA
# modifications: as 16(4) with 5' 80 kDa PEG (GL2-800TS)-ssH linker instead of 5' idT
# B18: SEQ 16(52) (mixed)
# RNA: UCUGAGGGAAACAGGUUUUGCUCCUCGGA
# modifications: dT1; 2'-deoxy G8,G14,G15; 2'-OMe G4,A5,G6,G7,A9,A11,A13,G20,G27,G28,A29; 2'-OH A10; other pyrimidines 2'-F; 5' 80 kDa PEG (GL2-800GS2)-ssH linker; 3' idT
# B19: SEQ 23 (ssRNA)
# RNA: GGAAACAGGUUUUGCUC
# modifications: 2'-F pyrimidines, 2'-OH purines
# B20: SEQ 16(4) (ssRNA)
# RNA: UCUGAGGGAAACAGGUUUUGCUCCUCGGA
# modifications: as 16(2) + 5' and 3' idT (G14 printed lower case, probably typo)
# B21: SEQ 16(60) (mixed)
# RNA: UCUGAGGGAAACAGGUUUUGCUCCUCGGA
# modifications: dT1; 2'-deoxy G8,G14,G15,C23,C26; 2'-OMe G4,A5,G6,G7,A9,A11,A13,U19,G20,G27,G28,A29; 2'-OH A10 with PS; other pyrimidines 2'-F; 5' and 3' idT
# B22: SEQ 16(27) (mixed)
# RNA: UCUGAGGGAAACAGGUUUUGCUCCUCGGA
# modifications: as 16(21) with dT25
# B23: SEQ 16(62) (mixed)
# RNA: UCUGAGGGAAACAGGUUUUGCUCCUCGGA
# modifications: dT1; 2'-deoxy G8,G14,G15,C23,C26; 2'-OMe G4,A5,G6,G7,A9,A11,A13,U18,G20,G27,G28,A29; 2'-OH A10 with PS; other pyrimidines 2'-F; 5' and 3' idT
# B24: SEQ 16(26) (mixed)
# RNA: UCUGAGGGAAACAGGUUUUGCUCCUCGGA
# modifications: as 16(21) with dC26
# B25: SEQ 28 (ssRNA)
# RNA: UCUGAGGGAAUCAGGAUUUGCUCCUCGGA
# modifications: 2'-F pyrimidines, 2'-OH purines
# B26: SEQ 16(53) (mixed)
# RNA: UCUGAGGGAAACAGGUUUUGCUCCUCGGA
# modifications: dT1; 2'-deoxy G8,G14,G15; 2'-OMe G4,A5,G6,G7,A9,A11,A13,G20,G27,G28,A29; 2'-OH A10 with PS; other pyrimidines 2'-F; 5' 80 kDa PEG (GL2-800GS2)-ssH linker; 3' idT
# B27: SEQ 16(31) (mixed)
# RNA: UCUGAGGGAAACAGGUUUUGCUCCUCGGA
# modifications: as 16(22) with ssH linker instead of 5' idT
# Legend:
# Autotaxin (ENPP2, NPP2) [1] = target: T1, Autotaxin (ENPP2, NPP2) (Homo sapiens, UniProt Q13822 Q13822:36-863); assay: inhibition; NPP2 assay, pNP-TMP substrate, solution A (Ca, Mg), 37 C
# Autotaxin (ENPP2, NPP2) [2] = target: T1, Autotaxin (ENPP2, NPP2); assay: inhibition
# Autotaxin (ENPP2, NPP2) [3] = target: T1, Autotaxin (ENPP2, NPP2); assay: SPR
# Autotaxin (ENPP2, NPP2) [4] = target: T1, Autotaxin (ENPP2, NPP2); assay: SPR; not more than 10% of SEQ 4
Binder,"IC50 (Autotaxin (ENPP2, NPP2) [1]) [nM]","IC50 (Autotaxin (ENPP2, NPP2) [2]) [nM]",other results
B1,12,–,–
B2,–,3.3,–
B3,–,77,–
B4,23,–,–
B5,–,22,–
B6,0.3,–,–
B7,–,5.9,–
B8,–,7.4,–
B9,–,–,"binding result (Autotaxin (ENPP2, NPP2) [3]): no binding"
B10,–,52,–
B11,0.2,–,–
B12,–,45,–
B13,–,720,"binding result (Autotaxin (ENPP2, NPP2) [3]): no binding"
B14,–,27,–
B15,1.3,–,–
B16,0.6,–,–
B17,–,32,–
B18,9.4,–,–
B19,–,–,"binding result (Autotaxin (ENPP2, NPP2) [4]): no binding"
B20,–,17,–
B21,23,–,–
B22,–,3.2,–
B23,23,–,–
B24,–,2.1,–
B25,–,–,"binding result (Autotaxin (ENPP2, NPP2) [3]): no binding"
B26,2.7,–,–
B27,–,0.8,–
